Assay results from the nanobody polyreactivity screen of Harvey et al. (2022).

Test: yeast display, Sf9 membrane polyspecificity reagent, FACS + sequencing; frameworks hold sequencing errors
Summary of the method: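 In a synthetic yeast display library (Saccharomyces cerevisiae BJ5465), nanobody expression was induced with galactose for 36–48 hours. FACS gates were set low and high (top ~1%) using anti-HA fluorescence for expression and streptavidin fluorescence for binding of the Sf9 membrane reagent. Each polyreactivity label is drawn from the gate of origin.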

Q: With “QVQLVESGGGLVQAGGSLRLSCAASGSIFGPYAMGWYRQAPGKERELVAAITWSGDSTYYADSVKGRFTISRDNAKNTVYLQMNSLKPEDTAVYYCAAETFIWGQGTQVTVSS” as the sequence, how does the “polyreactivity (PSR sort gate)” value read?
A: low polyreactivity

Q: For “QVQLVESGGGLVQAGGSLRLSCAASGSIFGPYVKGWYSQAPGKEREFVAAIRGSGGSTYYADSVKGRFTISRDNAKKTVYLQMNSLKPEDTAVYYCNARLKYTLYYYWGQGTQVTVSS”, which “polyreactivity (PSR sort gate)” value is on record?
A: high polyreactivity

Q: Which “polyreactivity (PSR sort gate)” value does the source give for “QVQLVESGGGLVQAGGSLRLSCAASGSIFGQNAMGWYRQAPGKEMELVAAIRVSGGSTYYADSVKGRFTNSRDNAKNTVYLQKNSLKPEDTAVYYCNARYRGYYGPKTHGVTYYYWGQGTQVTVSS” here?
A: low polyreactivity

Q: For “QVQLVESGGGLVQAGGSLRLSCAASGSIFGQNAMGWYRQAPGKERELVAAITTSRGSTYYADSVKGRFTISRDNPKNTVDFQMNSLNPEDTAVYYCAARYVTPGYIIYVYWGQGTQVTVSS”, which “polyreactivity (PSR sort gate)” value is on record?
A: high polyreactivity

Q: With “QVQLVESGGGLVQAGGSLRLSCAASGSIFGQYAMGRYRQAPGKERDLVAAIDWSSASTYYADSVKGRVTISRDNAKNTVYLQMNSLKPEDTAVYDCNAVGKYYRYDYWGQGTQVTVSS” as the sequence, how does the “polyreactivity (PSR sort gate)” value read?
A: high polyreactivity

Q: With “QVQLVESGGGLVQAGGSLRLSCAASGSIFGRNAMGWYRQAPGKERELVADIWNGGSTYYADSVKGRFTISRDNAKNTVYLQMNCLKPEDTAVYYCNADANDDGRFGGYIKYDYWGQGTQVTVSS” as the sequence, how does the “polyreactivity (PSR sort gate)” value read?
A: low polyreactivity

Q: Which “polyreactivity (PSR sort gate)” value does the source give for “QVQLVESGGGLVQAGGSLRLSCAASGSIFGRNAMGWYRQAPGKERELVAGISWSGGSTYYADSVKGRFTISRDNAKNTVYLQMNSLKPEDTAVYYCAADYWTWSGFTYYNYEYWGQGTQVTVSS” here?
A: high polyreactivity

Q: With “QVQLVESGGGLVQAGGSLRLSCAASGSIFGRNDMGWYRQAPGKERELVAAISGDTTTNYADSVKGRFTISRDNAKNTVYLQMNSLKPEDTAVYYCNRYSGGRWYPEYYYWGQGTQVTVSS” as the sequence, how does the “polyreactivity (PSR sort gate)” value read?
A: high polyreactivity

Q: Which “polyreactivity (PSR sort gate)” value does the source give for “QVQLVESGGGLVQAGGSLRLSCAASGSIFGRYAMGWYRQAPGKERELVAAISYSNARTYYADSVKGRFTISRDNAKNTVYLQMNSLKPEDTAVYYCAVLRRYLVGNLVGYNYWGQGTQVTVSS” here?
A: high polyreactivity

Q: For “QVQLVESGGGLVQAGGSLRLSCAASGSIFGRYAMGWYRQAPGKERELVADISWSGGRTYYADSVKGRFTISRDNAKNTVYLQMNSLKPEDTAVYYCNKVYRWFTRFDYWGQGTQLTVSS”, which “polyreactivity (PSR sort gate)” value is on record?
A: high polyreactivity

Q: For “QVQLVESGGGLVQAGGSLRLSCAASGSIFGRYAMGWYRQAPGKERELVASIYSSGSTYYADSVKGRFTISRDNAKNTVYLQMNSLKPEDTAVYYCAAQISVWGYRVGYTKYYYWGQGTQVTVSS”, which “polyreactivity (PSR sort gate)” value is on record?
A: high polyreactivity

Q: For “QVQLVESGGGLVQAGGSLRLSCAASGSIFGRYGAMGWYRQAPGKERELVAAIRTSGVSTYYADSVKGRFTISRDNAKKNVYLQMNSLKPEDTAVYYCAKGYTSYNLGKYGYWGQGTQVTVSS”, which “polyreactivity (PSR sort gate)” value is on record?
A: high polyreactivity

Q: For “QVQLVESGGGLVQAGGSLRLSCAASGSIFGRYPMGWYRQAPGKERELVAAISRRGGSTYYADSVKGRFTISRDNAKNTVYLQMNSLKPEDTAVYYCAARPFVKHDYWGQGTQVTVSS”, which “polyreactivity (PSR sort gate)” value is on record?
A: high polyreactivity

Q: With “QVQLVESGGGLVQAGGSLRLSCAASGSIFGRYVMGWYRQAPGKERELVAAINWSGSRTYYADSVKGRFTISRDNAKNTVYLQMNSLKPEDTAVYYCAADWWSRYYYWGQGTQVTVSS” as the sequence, how does the “polyreactivity (PSR sort gate)” value read?
A: high polyreactivity

Q: For “QVQLVESGGGLVQAGGSLRLSCAASGSIFGRYVMGWYRQAPGKERELVAAITSVGITNYADSVKGRFTISRDNAKNTVYLQMNSLKPEDTAVYYCAKRYYRYGARSWYYPYDYWGQGTQVTVSS”, which “polyreactivity (PSR sort gate)” value is on record?
A: high polyreactivity

Q: For “QVQLVESGGGLVQAGGSLRLSCAASGSIFGSNALGWSRQAPGKERELVAAITWSDGSTYYADSVKGRFTISRDNAKNTVYLQMNSLKPEDTAVYVRATDYGYSWYDYWGQGTQVTVSS”, which “polyreactivity (PSR sort gate)” value is on record?
A: low polyreactivity

Q: For “QVQLVESGGGLVQAGGSLRLSCAASGSIFGSNTMGWYRQAPGKEREFVAAISFSGGSTYYADSVKGRFTISRDNAKNTVYLQMNSLKPEDTAVYYCAARQRRVGTSFYSSRRDYWGQGTQVTVSS”, which “polyreactivity (PSR sort gate)” value is on record?
A: high polyreactivity

Q: With “QVQLVESGGGLVQAGGSLRLSCAASGSIFGSYAIGWYRHAPGKERELVAAIRYNSGSTYYADSVKGRFTISRDNAKNTVYLQMNSLKPEDTAVYYCAAYLLWGFDYWVQGTQVTVSS” as the sequence, how does the “polyreactivity (PSR sort gate)” value read?
A: high polyreactivity

Q: Which “polyreactivity (PSR sort gate)” value does the source give for “QVQLVESGGGLVQAGGSLRLSCAASGSIFGSYALGWYRQAPGKERELVAAISKSGGNTYYADSVKGRFTISRDNAKNTVYLQMNSLKPEDTAVYYCAARYRFLRPKVNYWGQGTQVTVSS” here?
A: high polyreactivity

Q: With “QVQLVESGGGLVQAGGSLRLSCAASGSIFGSYAMGWYRPAPGKERELVAAITRAGSTNYADSVKGRFTISRDNAKNTVYLQMNSLKPEDTAVYYCAVRPGFGRSLWYGYWGQGTQVTVSS” as the sequence, how does the “polyreactivity (PSR sort gate)” value read?
A: low polyreactivity

Q: For “QVQLVESGGGLVQAGGSLRLSCAASGSIFGSYAMGWYRQAPGKERELVAAISRRGGSTYYADSVKGRFTISRDNAKNTVYLQMNSLKPEDTAVYYCAARWPTGRNGYWGQGTQVTVSS”, which “polyreactivity (PSR sort gate)” value is on record?
A: high polyreactivity

Q: Which “polyreactivity (PSR sort gate)” value does the source give for “QVQLVESGGGLVQAGGSLRLSCAASGSIFGSYAMGWYRQAPGTERELVAAIDWSGVGTYYADSVKGRFTISRDNANNTVYLQMNSLKPEDTAVYYCAAGVLRRDTELYYWGQGTQVTVSS” here?
A: low polyreactivity

Q: Which “polyreactivity (PSR sort gate)” value does the source give for “QVQLVESGGGLVQAGGSLRLSCAASGSIFGSYTMGWYRPAPGKERELVAAITSGGGNTYYADSVKGRFTISRDNAKNTVYLQMNSLKPEDTAVYYCAARERYTGYGSWGQGTQVTVSS” here?
A: high polyreactivity

Q: Which “polyreactivity (PSR sort gate)” value does the source give for “QVQLVESGGGLVQAGGSLRLSCAASGSIFGTYAKGWYRQAPGKERELVAAISKRGSTTSYADSVKGRFTISRDNAKNTVYLQMNSLKPEDTAVYYCAALTRNSGGYGSWGQGTQVTVSS” here?
A: high polyreactivity

Q: Which “polyreactivity (PSR sort gate)” value does the source give for “QVQLVESGGGLVQAGGSLRLSCAASGSIFGTYAMGWYRQAPGKEREFVAAISWSDGSTYYADSVKGRFTISRDNAKNTVYLQMNSLIPEDTAVYYCAVRRVGSIYIDRYIYVVADYDYWGQGTQVTVSS” here?
A: low polyreactivity

Q: With “QVQLVESGGGLVQAGGSLRLSCAASGSIFGTYAMGWYRQAPGKERELVAAISRGGRTYYADSVKGRFTISRDNAKNTVYLQMNSLKPEDTAVYYCAARTVGLRGYYYWGQGTQVTVSS” as the sequence, how does the “polyreactivity (PSR sort gate)” value read?
A: high polyreactivity

Q: For “QVQLVESGGGLVQAGGSLRLSCAASGSIFGTYAMGWYRQAPGKERELVATISYGDGSTYYADSVKGRFTISRDNAKNTVYLQMNSLKPEDTAVYYCNTGVYSSGGPLDYWGQGTQVTVSS”, which “polyreactivity (PSR sort gate)” value is on record?
A: low polyreactivity

Q: For “QVQLVESGGGLVQAGGSLRLSCAASGSIFGVNAMGWYRQAPGKERELVAAISSGGSTNYADSVKGRFTISRDNAKNTVYLQMNSLKPEDTAVSYCNTLWGHQYIGPYRTRECYYWGQGTQVTVSS”, which “polyreactivity (PSR sort gate)” value is on record?
A: low polyreactivity

Q: Which “polyreactivity (PSR sort gate)” value does the source give for “QVQLVESGGGLVQAGGSLRLSCAASGSIFGVNAMGWYRQAPGKERELVASITGGDSTNYADSVKGRFTISRDNAKNTVYLQMNSLKPEDSAVYYCAKDHYYRYEEGDYWGQGTQVTVSS” here?
A: low polyreactivity

Q: Which “polyreactivity (PSR sort gate)” value does the source give for “QVQLVESGGGLVQAGGSLRLSCAASGSIFGVNAMGWYRQAPGKERELVASITGGDSTNYADSVKGRFTISRDNAKNTVYLQMNSLKPEDTAVYYCAKDHYYRYEEGDYWGQGTQVTVSS” here?
A: low polyreactivity

Q: For “QVQLVESGGGLVQAGGSLRLSCAASGSIFGVNAMGWYRQAPGKERELVATISASGGSTYYADSVKGRFTISRDNAKNTVYLQMNSLKPEDTAVYYCATVVSPSPEMDYWGQGTQVTVSS”, which “polyreactivity (PSR sort gate)” value is on record?
A: low polyreactivity

Q: Which “polyreactivity (PSR sort gate)” value does the source give for “QVQLVESGGGLVQAGGSLRLSCAASGSIFGVYAMGWYIPAPGTERELVAAISRGGSTNDADSVKGRFTISRDNEKNTVYLQMNSLKPEDTAVYYCNAVPVLGGYGYQWGYDYWGQGTKVTVSS” here?
A: low polyreactivity

Q: For “QVQLVESGGGLVQAGGSLRLSCAASGSIFGWNAMGWYRQAPGKERELVAAITRRGDSTYYADSVKGRFTISRDNAKNTVYLQMNSLKPEDTAVYYCAKRGTGVYRVDYGYWGQGTQVTVSS”, which “polyreactivity (PSR sort gate)” value is on record?
A: high polyreactivity

Q: For “QVQLVESGGGLVQAGGSLRLSCAASGSIFGWYAMGGYRQAPGKESELVASISVTAGSTYYADSVKWRFTMSRDYAKNTVYLQMNSLKPEDTAVYYCAADDYTADAVQRFYYWGQGTQVTVSS”, which “polyreactivity (PSR sort gate)” value is on record?
A: low polyreactivity

Q: For “QVQLVESGGGLVQAGGSLRLSCAASGSIFGWYAMGWYRQAPGKEREFVATISRRGGRTYYADSVKGRFTISRDNAKNTVYLQMNSLKPEDTAVYYCAANSVYKEDYWGQGTQVTVSS”, which “polyreactivity (PSR sort gate)” value is on record?
A: high polyreactivity

Q: Which “polyreactivity (PSR sort gate)” value does the source give for “QVQLVESGGGLVQAGGSLRLSCAASGSIFGWYAMGWYRQAPGKERELVAAIDSATSTYYADSVKGRFTISRDNAKNTVYLQKNSLKPEDTAVYYCAVYSWWIDAEYDYWGQGSQVTVSS” here?
A: low polyreactivity

Q: With “QVQLVESGGGLVQAGGSLRLSCAASGSIFGWYAMGWYRQAPGKERELVAGISWSGANTYYADSVKGRFTISRDNAKNTVYLQMNSLKPEDTAVYYCAAGPGLYYSRRYGYWGQGTQVTVSS” as the sequence, how does the “polyreactivity (PSR sort gate)” value read?
A: high polyreactivity

Q: For “QVQLVESGGGLVQAGGSLRLSCAASGSIFGWYAMGWYRQAPGKERELVATISSGGGNTYYADAVKGRFTISRDNAKNTVYLQMNSLKPEDTAVYYCNASPGPDSRLAEFDYWGQGTQVTVSS”, which “polyreactivity (PSR sort gate)” value is on record?
A: low polyreactivity

Q: Which “polyreactivity (PSR sort gate)” value does the source give for “QVQLVESGGGLVQAGGSLRLSCAASGSIFGWYVMGWYRQAPGKERELVAAISSVGSTYYADSVKGRFTISRDNAKNTVYLQMNSLKPEDTAVYYCAKLRYPYLFWDDSEYWGQCTQVTVSS” here?
A: low polyreactivity

Q: With “QVQLVESGGGLVQAGGSLRLSCAASGSIFGYNAKGWYRQAPGKERELVAAINYRGGSTYYADSVKGRFTISRDNAKNTVYLQMNSLKPEDTAVYYCAARYWKDGSTYDYWGQGTQVTVSS” as the sequence, how does the “polyreactivity (PSR sort gate)” value read?
A: high polyreactivity

Q: Which “polyreactivity (PSR sort gate)” value does the source give for “QVQLVESGGGLVQAGGSLRLSCAASGSIFGYNAMGWYRQAPGKEREFVAAISWSGGRTYYADSVKGRFTISRDNAKYTVYLQMNSLKPEDTAVYYCAAPSRPAPRFDYWGQGTQVTVSS” here?
A: low polyreactivity
